Laboratory results: the supplement of paper PMC10567573

B1: TRIM35 (parent)
chain: PTCPVCKDRASPADLRTNHTLNNL

Variants of: B1
Assay: protein stability index of a GFP-peptide fusion (GPS, HEK-293T) (PSI 1-6); higher = more stable
Conditions: c terminus: a fixed tail appended
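Further: lentivirally expressed fusions sorted by FACS into six bins by GFP to DsRed ratio, PSI derived from sequencing read proportions per bin multiplied by bin number.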

Variant	protein stability index
PTCPVCKDRASPADLLTNHTLNNL [R16L]	3.04
PTCPVCKDRASPADLNTNHTLNNL [R16N]	3.32
PTCPVCKDRASPADLATNHTLNNL [R16A]	3.34
PTCPVCKDRASPADLVTNHTLNNL [R16V]	3.07
PTCPVCKDRASPADLHTNHTLNNL [R16H]	3.17
PTCPVCKDRASPADLKTNHTLNNL [R16K]	2.7
PTCPVCKDRASPADLPTNHTLNNL [R16P]	3.11
PTCPVCKDRASPADLGTNHTLNNL [R16G]	2.63
PTCPVCKDRASPADLITNHTLNNL [R16I]	2.33
PTCPVCKDRASPADLFTNHTLNNL [R16F]	2.42
PTCPVCKDRASPADLSTNHTLNNL [R16S]	3.54
PTCPVCKDRASPADLETNHTLNNL [R16E]	4.09
PTCPVCKDRASPADLDTNHTLNNL [R16D]	3.91
PTCPVCKDRASPADLMTNHTLNNL [R16M]	2.72
PTCPVCKDRASPADLWTNHTLNNL [R16W]	2.01
PTCPVCKDRASPADLYTNHTLNNL [R16Y]	2.42
PTCPVCKDRASPADLTTNHTLNNL [R16T]	2.95
PTCPVCKDRASPADLCTNHTLNNL [R16C]	3.89
PTCPVCKDRASPADLQTNHTLNNL [R16Q]	3.39
PTCPVCKDRRSPADLRTNHTLNNL [A10R]	3.03
PTCPVCKDRWSPADLRTNHTLNNL [A10W]	2.22
PTCPVCKDRVSPADLRTNHTLNNL [A10V]	2.45
PTCPVCKDRYSPADLRTNHTLNNL [A10Y]	2.56
PTCPVCKDRMSPADLRTNHTLNNL [A10M]	2.72

Variant	protein stability index
PTCPVCKDRNSPADLRTNHTLNNL [A10N]	2.78
PTCPVCKDRSSPADLRTNHTLNNL [A10S]	2.86
PTCPVCKDRQSPADLRTNHTLNNL [A10Q]	3.01
PTCPVCKDRTSPADLRTNHTLNNL [A10T]	2.96
PTCPVCKDRPSPADLRTNHTLNNL [A10P]	3.17
PTCPVCKDRASPACLRTNHTLNNL [D14C]	3.9
PTCPVCKDRASPAKLRTNHTLNNL [D14K]	2.72
PTCPVCKDRASPAHLRTNHTLNNL [D14H]	2.97
PTCPVCKDRASPAWLRTNHTLNNL [D14W]	2.6
PTCPVCKDRASPAQLRTNHTLNNL [D14Q]	3.18
PTCPVCKDRASPANLRTNHTLNNL [D14N]	2.5
PTCPVCKDRASPAALRTNHTLNNL [D14A]	2.5
PTCPVCKDRASPASLRTNHTLNNL [D14S]	2.98
PTCPVCKDRASPATLRTNHTLNNL [D14T]	2.77
PTCPVCKDRASPAFLRTNHTLNNL [D14F]	2.21
PTCPVCKDRASPAILRTNHTLNNL [D14I]	2.45
PTCPVCKDRASPAYLRTNHTLNNL [D14Y]	2.24
PTCPVCKDRASPAELRTNHTLNNL [D14E]	3.12
PTCPVCKDRASPAPLRTNHTLNNL [D14P]	2.98
PTCPVCKDRASPALLRTNHTLNNL [D14L]	2.2
PTCPVCKDRASPAMLRTNHTLNNL [D14M]	2.2
PTCPVCKDRASPAVLRTNHTLNNL [D14V]	2.54
PTCPVCKDRASPAGLRTNHTLNNL [D14G]	2.48
